Patent US9029508 (dated 2015)
Values joined by “and” are separate entries in the source; they are usually repeats but may differ in a detail not shown here. Equal entries are not always repeated. Where two headings read alike, the source gives them in different places. One block for each binder: values may come before it.

Legend:
ErbB3 [1] = molecular target: T1, ErbB3 (human, UniProt P21860); experiment: SPR
ErbB3 [2] = molecular target: T1, ErbB3; experiment: ELISA
DLL4 [3] = molecular target: T2, DLL4 (human, UniProt Q9NR61); experiment: ELISA
DLL4 [4] = molecular target: T2, DLL4; experiment: competition
DLL4 [5] = molecular target: T2, DLL4; experiment: SPR
PlGF [6] = molecular target: T3, PlGF (human, UniProt P49763); experiment: ELISA
T3 chain: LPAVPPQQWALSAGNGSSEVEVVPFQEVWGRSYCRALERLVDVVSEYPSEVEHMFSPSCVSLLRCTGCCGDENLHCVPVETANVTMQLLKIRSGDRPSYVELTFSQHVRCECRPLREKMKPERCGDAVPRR

PlGF [7] = molecular target: T3, PlGF; experiment: SPR
HGF [8] = molecular target: T4, HGF (human, UniProt P14210); experiment: ELISA
HGF [9] = molecular target: T4, HGF; experiment: SPR
HGF [10] = molecular target: T4, HGF; experiment: competition
IGF2 [11] = molecular target: T5, IGF2 (human, UniProt P01344); experiment: ELISA
IGF2 [12] = molecular target: T5, IGF2; experiment: SPR
IGF1 [13] = molecular target: T6, IGF1 (human, UniProt P05019); experiment: ELISA
IGF1 [14] = molecular target: T6, IGF1; experiment: ELISA; remark: listed apart in the source
IGF2 [15] = molecular target: T5, IGF2; experiment: ELISA; remark: listed apart in the source
IGF1R [16] = molecular target: T7, IGF1R (human, UniProt P08069); experiment: ELISA
IGF1R [17] = molecular target: T7, IGF1R; experiment: ELISA; remark: listed apart in the source

T4 sequence (P14210 32-728): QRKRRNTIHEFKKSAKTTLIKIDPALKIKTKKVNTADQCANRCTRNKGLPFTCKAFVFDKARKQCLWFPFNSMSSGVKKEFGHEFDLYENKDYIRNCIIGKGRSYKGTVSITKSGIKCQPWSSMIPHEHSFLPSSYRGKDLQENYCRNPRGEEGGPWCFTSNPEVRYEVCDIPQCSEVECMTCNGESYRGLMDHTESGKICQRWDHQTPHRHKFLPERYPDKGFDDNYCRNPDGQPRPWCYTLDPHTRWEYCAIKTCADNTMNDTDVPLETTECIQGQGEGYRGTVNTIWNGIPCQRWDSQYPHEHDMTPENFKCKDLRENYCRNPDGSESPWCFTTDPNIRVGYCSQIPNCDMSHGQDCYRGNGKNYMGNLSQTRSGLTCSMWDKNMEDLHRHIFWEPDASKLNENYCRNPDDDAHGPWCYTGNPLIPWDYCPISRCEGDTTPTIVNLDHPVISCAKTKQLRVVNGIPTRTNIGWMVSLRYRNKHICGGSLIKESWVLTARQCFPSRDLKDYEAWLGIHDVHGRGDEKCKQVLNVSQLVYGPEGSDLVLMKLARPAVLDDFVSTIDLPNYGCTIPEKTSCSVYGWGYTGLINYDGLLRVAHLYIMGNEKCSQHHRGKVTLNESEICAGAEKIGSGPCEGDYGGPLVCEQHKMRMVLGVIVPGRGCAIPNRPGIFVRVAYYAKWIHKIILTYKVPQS
T2 sequence (Q9NR61 27-524): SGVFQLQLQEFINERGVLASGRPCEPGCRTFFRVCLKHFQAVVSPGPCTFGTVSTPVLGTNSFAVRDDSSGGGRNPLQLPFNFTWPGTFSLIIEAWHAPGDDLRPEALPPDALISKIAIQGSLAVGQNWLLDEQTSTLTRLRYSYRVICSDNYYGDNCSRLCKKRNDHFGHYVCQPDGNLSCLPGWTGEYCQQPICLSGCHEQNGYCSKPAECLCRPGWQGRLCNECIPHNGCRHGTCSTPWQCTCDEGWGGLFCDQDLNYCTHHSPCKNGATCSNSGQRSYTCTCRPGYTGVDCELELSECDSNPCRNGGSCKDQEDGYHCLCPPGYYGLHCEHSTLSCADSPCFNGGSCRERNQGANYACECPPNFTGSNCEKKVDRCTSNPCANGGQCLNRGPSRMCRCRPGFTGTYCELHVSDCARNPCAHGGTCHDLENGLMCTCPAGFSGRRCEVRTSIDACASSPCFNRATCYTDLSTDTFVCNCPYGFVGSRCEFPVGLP

B2: DVD300 ErbB3 arm (antibody, V domains shown)
VH: QVQLQQWGAGLLKPSETLSLTCAVYGGSFSGYYWSWIRQPPGKGLEWIGEINHSGSTNYNPSLKSRVTISVETSKNQFSLKLSSVTAADTAVYYCARDKWTWYFDLWGRGTLVTVSS
VL: not shown
modifications: DVD-Ig inner
EC50 (ErbB3 [2]): 7630 nM

B3: DVD258 DLL4 arm (antibody)
chain 1: EVQLVESGGGLVQPGGSLRLSCAASGFTFTDNWISWVRQAPGKGLEWVGYISPNSGFTYYADSVKGRFTISADTSKNTAYLQMNSLRAEDTAVYYCARDNFGGYFDYWGQGTLVTVSS
chain 2: DIQMTQSPSSLSASVGDRVTITCRASQDVSTAVAWYQQKPGKAPKLLIYSASFLYSGVPSRFSGSGSGTDFTLTISSLQPEDFATTYYCQQSYTGTVTFGQGTKVEIKR
modifications: DVD-Ig inner
EC50 (DLL4 [3]): 2.3 nM
IC50 (DLL4 [4]): 17.5 nM

B5: AB047 (antibody, V domains shown)
VH: QVQLQQSGAELVKPGASVKISCKASGYTFTDYYINWVKLAPGQGLEWIGWIYPGSGNTKYNEKFKGKATLTIDTSSSTAYMQLSSLTSEDTAVYFCVRDSPFFDYWGQGTLLTVSS
VL: DIVLTQSPDSLAVSLGERVTMNCKSSQSLLNSGMRKSFLAWYQQKPGQSPKLLIYWASTRESGVPDRFTGSGSGTDFTLTISSVQAEDVAVYYCKQSYHLFTFGSGTKLEIKR
EC50 (PlGF [6]): 0.2 nM
Kd (PlGF [7]): 0.0285 nM and 0.0284 nM

B6: DVD259 PlGF arm (antibody, V domains shown)
VH: QVQLQQSGAELVKPGASVKISCKASGYTFTDYYINWVKLAPGQGLEWIGWIYPGSGNTKYNEKFKGKATLTIDTSSSTAYMQLSSLTSEDTAVYFCVRDSPFFDYWGQGTLLTVSS
VL: DIVLTQSPDSLAVSLGERVTMNCKSSQSLLNSGMRKSFLAWYQQKPGQSPKLLIYWASTRESGVPDRFTGSGSGTDFTLTISSVQAEDVAVYYCKQSYHLFTFGSGTKLEIKR
modifications: DVD-Ig inner
EC50 (PlGF [6]): 1.3 nM
Kd (PlGF [7]): 0.33 nM

B10: DVD033 HGF arm (antibody, V domains shown)
VH: QVQLVESGGGLVKPGGSLRLSCAASGFTFSDYYMSWIRQAPGKGLEWVSYISSSGSTIYYADSVKGRFTISRDNAKNSLYLQMNSLRAEDTAVYYCARDEYNSGWYVLFDYWGQGTLVTVSS
VL: DIQMTQSPSSVSASVGDRVTITCRASQGISSWLAWYQQKPGKAPNLLIYEASSLQSGVPSRFGGSGSGTDFTLTISSLQPEDFATYYCQQANGFPWTFGQGTKVEIKR
modifications: DVD-Ig inner
EC50 (HGF [8]): 11.9 nM
Kd (HGF [9]): 0.31 nM
IC50 (HGF [10]): 8.7 nM

B11: DVD034 HGF arm (antibody, V domains shown)
VH: QVQLVESGGGLVKPGGSLRLSCAASGFTFSDYYMSWIRQAPGKGLEWVSYISSSGSTIYYADSVKGRFTISRDNAKNSLYLQMNSLRAEDTAVYYCARDEYNSGWYVLFDYWGQGTLVTVSS
VL: DIQMTQSPSSVSASVGDRVTITCRASQGISSWLAWYQQKPGKAPNLLIYEASSLQSGVPSRFGGSGSGTDFTLTISSLQPEDFATYYCQQANGFPWTFGQGTKVEIKR
modifications: DVD-Ig outer
EC50 (HGF [8]): 0.27 nM
Kd (HGF [9]): 0.0215 nM
IC50 (HGF [10]): 0.34 nM

B12: AB012 (antibody, V domains shown)
VH: QVQLVESGGGLVKPGGSLRLSCAASGFTFSDYYMSWIRQAPGKGLEWVSYISSSGSTIYYADSVKGRFTISRDNAKNSLYLQMNSLRAEDTAVYYCARDEYNSGWYVLFDYWGQGTLVTVSS
VL: DIQMTQSPSSVSASVGDRVTITCRASQGISSWLAWYQQKPGKAPNLLIYEASSLQSGVPSRFGGSGSGTDFTLTISSLQPEDFATYYCQQANGFPWTFGQGTKVEIKR
EC50 (HGF [8]): 0.19 nM and 0.22 nM
Kd (HGF [9]): < 0.0284 nM
IC50 (HGF [10]): 0.18 nM

B14: DVD041 IGF1,2 arm (antibody, V domains shown)
VH: QVQLVQSGAEVKKPGASVKVSCKASGYTFTSYDINWVRQATGQGLEWMGWMNPNSGNTGYAQKFQGRVTMTRNTSISTAYMELSSLRSEDTAVYYCARDPYYYYYGMDVWGQGTTVTVSS
VL: QSVLTQPPSVSAAPGQKVTISCSGSSSNIENNHVSWYQQLPGTAPKLLIYDNNKRPSGIPDRFSGSKSGTSATLGITGLQTGDEADYYCETWDTSLSAGRVFGGGTKLTVLG
modifications: DVD-Ig inner
EC50 (IGF2 [11]): 7340 nM
Kd (IGF2 [12]): < 0.0124 nM
EC50 (IGF1 [13]): 381 nM
EC50 (IGF1 [14]): 381 nM
EC50 (IGF2 [15]): 7340 nM

B15: DVD042 IGF1,2 arm (antibody, V domains shown)
VH: QVQLVQSGAEVKKPGASVKVSCKASGYTFTSYDINWVRQATGQGLEWMGWMNPNSGNTGYAQKFQGRVTMTRNTSISTAYMELSSLRSEDTAVYYCARDPYYYYYGMDVWGQGTTVTVSS
VL: QSVLTQPPSVSAAPGQKVTISCSGSSSNIENNHVSWYQQLPGTAPKLLIYDNNKRPSGIPDRFSGSKSGTSATLGITGLQTGDEADYYCETWDTSLSAGRVFGGGTKLTVLG
modifications: DVD-Ig outer
EC50 (IGF2 [11]): 17.6 nM
Kd (IGF2 [12]): 0.000998 nM
EC50 (IGF1 [13]): 2.54 nM
EC50 (IGF1 [14]): 2.5 nM
EC50 (IGF2 [15]): 17.6 nM

B16: DVD031 IGF1R arm (antibody, V domains shown)
VH: EVQLLESGGGLVQPGGSLRLSCTASGFTFSSYAMNWVRQAPGKGLEWVSAISGSGGTTFYADSVKGRFTISRDNSRTTLYLQMNSLRAEDTAVYYCAKDLGWSDSYYYYYGMDVWGQGTTVTVSS
VL: DIQMTQFPSSLSASVGDRVTITCRASQGIRNDLGWYQQKPGKAPKRLIYAASRLHRGVPSRFSGSGSGTEFTLTISSLQPEDFATYYCLQHNSYPCSFGQGTKLEIKR
modifications: DVD-Ig inner
EC50 (IGF1R [16]): 171 nM
EC50 (IGF1R [17]): 171 nM

Second part, the binder after the results:

Kd (ErbB3 [1]): 0.82 nM
EC50 (ErbB3 [2]): 1.96 nM
B1: DVD299 ErbB3 arm (antibody, V domains shown)
VH: QVQLQQWGAGLLKPSETLSLTCAVYGGSFSGYYWSWIRQPPGKGLEWIGEINHSGSTNYNPSLKSRVTISVETSKNQFSLKLSSVTAADTAVYYCARDKWTWYFDLWGRGTLVTVSS
VL: not shown
modifications: DVD-Ig outer

Kd (DLL4 [5]): 0.234 nM
EC50 (DLL4 [3]): 0.28 nM
IC50 (DLL4 [4]): 0.38 nM
B4: DVD257 DLL4 arm (antibody)
chain 1: EVQLVESGGGLVQPGGSLRLSCAASGFTFTDNWISWVRQAPGKGLEWVGYISPNSGFTYYADSVKGRFTISADTSKNTAYLQMNSLRAEDTAVYYCARDNFGGYFDYWGQGTLVTVSS
chain 2: DIQMTQSPSSLSASVGDRVTITCRASQDVSTAVAWYQQKPGKAPKLLIYSASFLYSGVPSRFSGSGSGTDFTLTISSLQPEDFATTYYCQQSYTGTVTFGQGTKVEIKR
modifications: DVD-Ig outer

EC50 (PlGF [6]): 0.12 nM
Kd (PlGF [7]): 0.012 nM
B7: DVD260 PlGF arm (antibody, V domains shown)
VH: QVQLQQSGAELVKPGASVKISCKASGYTFTDYYINWVKLAPGQGLEWIGWIYPGSGNTKYNEKFKGKATLTIDTSSSTAYMQLSSLTSEDTAVYFCVRDSPFFDYWGQGTLLTVSS
VL: DIVLTQSPDSLAVSLGERVTMNCKSSQSLLNSGMRKSFLAWYQQKPGQSPKLLIYWASTRESGVPDRFTGSGSGTDFTLTISSVQAEDVAVYYCKQSYHLFTFGSGTKLEIKR
modifications: DVD-Ig outer

EC50 (PlGF [6]): 0.08 nM
Kd (PlGF [7]): < 0.254 nM
B8: DVD258 PlGF arm (antibody, V domains shown)
VH: QVQLQQSGAELVKPGASVKISCKASGYTFTDYYINWVKLAPGQGLEWIGWIYPGSGNTKYNEKFKGKATLTIDTSSSTAYMQLSSLTSEDTAVYFCVRDSPFFDYWGQGTLLTVSS
VL: DIVLTQSPDSLAVSLGERVTMNCKSSQSLLNSGMRKSFLAWYQQKPGQSPKLLIYWASTRESGVPDRFTGSGSGTDFTLTISSVQAEDVAVYYCKQSYHLFTFGSGTKLEIKR
modifications: DVD-Ig outer

EC50 (PlGF [6]): 2 nM
Kd (PlGF [7]): 0.367 nM
B9: DVD257 PlGF arm (antibody, V domains shown)
VH: QVQLQQSGAELVKPGASVKISCKASGYTFTDYYINWVKLAPGQGLEWIGWIYPGSGNTKYNEKFKGKATLTIDTSSSTAYMQLSSLTSEDTAVYFCVRDSPFFDYWGQGTLLTVSS
VL: DIVLTQSPDSLAVSLGERVTMNCKSSQSLLNSGMRKSFLAWYQQKPGQSPKLLIYWASTRESGVPDRFTGSGSGTDFTLTISSVQAEDVAVYYCKQSYHLFTFGSGTKLEIKR
modifications: DVD-Ig inner

EC50 (HGF [8]): 251 nM
Kd (HGF [9]): 0.746 nM
IC50 (HGF [10]): > 100 nM
B13: DVD025 HGF arm (antibody, V domains shown)
VH: QVQLVESGGGLVKPGGSLRLSCAASGFTFSDYYMSWIRQAPGKGLEWVSYISSSGSTIYYADSVKGRFTISRDNAKNSLYLQMNSLRAEDTAVYYCARDEYNSGWYVLFDYWGQGTLVTVSS
VL: DIQMTQSPSSVSASVGDRVTITCRASQGISSWLAWYQQKPGKAPNLLIYEASSLQSGVPSRFGGSGSGTDFTLTISSLQPEDFATYYCQQANGFPWTFGQGTKVEIKR
modifications: DVD-Ig inner

EC50 (IGF1R [16]): 135 nM
EC50 (IGF1R [17]): 135 nM
B17: DVD021 IGF1R arm (antibody, V domains shown)
VH: EVQLLESGGGLVQPGGSLRLSCTASGFTFSSYAMNWVRQAPGKGLEWVSAISGSGGTTFYADSVKGRFTISRDNSRTTLYLQMNSLRAEDTAVYYCAKDLGWSDSYYYYYGMDVWGQGTTVTVSS
VL: DIQMTQFPSSLSASVGDRVTITCRASQGIRNDLGWYQQKPGKAPKRLIYAASRLHRGVPSRFSGSGSGTEFTLTISSLQPEDFATYYCLQHNSYPCSFGQGTKLEIKR
modifications: DVD-Ig inner
